Test results reported in patent US20240269256A1 (HDT BIO, published 2024).

Molecular target: enterovirus D68 clade B2 virus (enterovirus D68)
Test: cell-based or functional assay

B1: AAA_G12 anti-EV-D68 VHH (recombinant VHH G12) (VHH)
VHH: QVQLVESGGGLVQPGGSLRLSCLASGITFTVYRMAWYRQAPGRQRDLVAEVAPGGGTVAANSVKGRFTISRDSAKNTVDLQMNDLKPDDTAVYYCYARNLFTSGEYWGQGTQVTVSS
50% inhibitory concentrations (IC50), neutralization by real time cell analysis (RTCA) assay: ~1 nM
